Source: PMC5339705, “OGG1-DNA interactions facilitate NF-κB binding to DNA targets”

Key:
p50 (NF-kB1) [1] = biological target: T1, p50 (NF-kB1) (UniProt P19838 1-433); assay: EMSA; p50 alone; mildly enhanced by 1 ng OGG1; 10 mM Tris-HCl pH 8.0, 5 mM NaCl, 1 mM EDTA, 1 mM DTT, 0.1 mg/ml BSA, 0.1 µg/µl poly(dI-dC) (stated for NE reactions), 10 fmol probe, 10 µl, RT 5-10 min; 6% gel 0.5x TBE 4 °C; conditions: protein: commercial; chain copies: 2; label: 5' biotin on strand 2; blunt
p65 (RelA) = p65 (RelA) (UniProt Q04206 1-551); assay: EMSA; 15 ng p65 (also 7.5 ng series) with OGG1; 10 mM Tris-HCl pH 8.0, 5 mM NaCl, 1 mM EDTA, 1 mM DTT, 0.1 mg/ml BSA, 0.1 µg/µl poly(dI-dC) (stated for NE reactions), 10 fmol probe, 10 µl, RT 5-10 min; 6% gel 0.5x TBE 4 °C; conditions: protein: commercial; chain copies: 2; label: 5' biotin on strand 2; blunt
p65 (RelA), sequence (Q04206 whole entry): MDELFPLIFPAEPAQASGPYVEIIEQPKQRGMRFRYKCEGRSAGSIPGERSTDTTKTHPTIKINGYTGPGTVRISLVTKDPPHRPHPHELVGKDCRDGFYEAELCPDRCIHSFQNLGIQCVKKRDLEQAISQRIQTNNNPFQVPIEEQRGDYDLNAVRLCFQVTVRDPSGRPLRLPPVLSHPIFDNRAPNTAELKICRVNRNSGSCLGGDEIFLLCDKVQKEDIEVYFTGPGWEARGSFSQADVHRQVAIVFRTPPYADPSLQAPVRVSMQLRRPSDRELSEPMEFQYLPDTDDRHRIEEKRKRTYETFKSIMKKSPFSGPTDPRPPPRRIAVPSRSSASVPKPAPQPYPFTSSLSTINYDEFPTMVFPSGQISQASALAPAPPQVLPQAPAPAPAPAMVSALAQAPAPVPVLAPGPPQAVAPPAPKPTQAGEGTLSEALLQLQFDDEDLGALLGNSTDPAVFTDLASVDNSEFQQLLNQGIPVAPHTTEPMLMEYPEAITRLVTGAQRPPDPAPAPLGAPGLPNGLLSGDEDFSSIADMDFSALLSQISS

OGG1 = OGG1 (UniProt O15527 1-345); assay: EMSA; OGG1 alone; more complex when NF-kB present; 10 mM Tris-HCl pH 8.0, 5 mM NaCl, 1 mM EDTA, 1 mM DTT, 0.1 mg/ml BSA, 0.1 µg/µl poly(dI-dC) (stated for NE reactions), 10 fmol probe, 10 µl, RT 5-10 min; 6% gel 0.5x TBE 4 °C; conditions: protein: commercial; label: 5' biotin on strand 2; blunt
OGG1, sequence (O15527 whole entry): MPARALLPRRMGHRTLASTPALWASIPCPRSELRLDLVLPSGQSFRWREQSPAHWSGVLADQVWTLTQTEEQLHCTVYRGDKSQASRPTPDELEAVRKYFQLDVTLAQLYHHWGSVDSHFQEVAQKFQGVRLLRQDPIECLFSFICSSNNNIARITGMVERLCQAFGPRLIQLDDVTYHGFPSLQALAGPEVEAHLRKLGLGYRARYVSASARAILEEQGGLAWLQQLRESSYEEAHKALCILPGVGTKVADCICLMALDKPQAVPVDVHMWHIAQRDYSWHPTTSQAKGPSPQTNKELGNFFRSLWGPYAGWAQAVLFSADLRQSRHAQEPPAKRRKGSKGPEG

p50 (NF-kB1) [2] = biological target: T1, p50 (NF-kB1); assay: EMSA; homodimer formed in p65/p50 mix, no OGG1; from 1 min; 10 mM Tris-HCl pH 8.0, 5 mM NaCl, 1 mM EDTA, 1 mM DTT, 0.1 mg/ml BSA, 0.1 µg/µl poly(dI-dC) (stated for NE reactions), 10 fmol probe, 10 µl, RT 5-10 min; 6% gel 0.5x TBE 4 °C; conditions: protein: commercial; chain copies: 2; label: 5' biotin on strand 2; blunt

T1 sequence (P19838 1-433): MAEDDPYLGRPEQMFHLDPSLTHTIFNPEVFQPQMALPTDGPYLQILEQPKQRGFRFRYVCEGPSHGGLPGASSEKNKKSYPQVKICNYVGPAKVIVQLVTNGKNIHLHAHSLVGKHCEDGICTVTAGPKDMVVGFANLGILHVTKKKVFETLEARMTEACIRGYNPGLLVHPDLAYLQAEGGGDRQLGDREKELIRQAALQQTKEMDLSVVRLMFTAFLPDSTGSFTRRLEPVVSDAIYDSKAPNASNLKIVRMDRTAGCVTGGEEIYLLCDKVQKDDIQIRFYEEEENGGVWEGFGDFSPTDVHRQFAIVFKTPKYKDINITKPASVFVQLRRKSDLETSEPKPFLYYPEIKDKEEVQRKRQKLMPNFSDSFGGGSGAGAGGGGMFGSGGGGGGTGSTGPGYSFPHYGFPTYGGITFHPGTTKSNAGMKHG

Binder	binding result (p50 (NF-kB1) [1])	binding signal (p65 (RelA)) [fold vs p65 alone]	binding result (OGG1)	binding result (p50 (NF-kB1) [2])
κB2-G6 (dsDNA, 8-oxoG at strand 2 position 23 (opposite C11 of strand 1)) DNA 1: TGAGGGGACCCTGAGCTCAGGGAATTTCCCTGG DNA 2: CCAGGGAAATTCCCTGAGCTCAGGGTCCCCTCA	binds	> 10	binds	–
κB2-Wt (dsDNA) DNA 1: TGAGGGGACCCTGAGCTCAGGGAATTTCCCTGG DNA 2: CCAGGGAAATTCCCTGAGCTCAGGGTCCCCTCA	–	–	–	binds
